Results as given in US20210246166A1 (Bayer, published 2021).
Numbered stars: 1 amine (or outer) side, 2 acyl side, 3 side chain; on linkers, the order of the positions; unused ones are H or OH. Bridge positions count the residues as written; N and C are the ends. Square brackets hold non-standard residues; d marks the D form. Primed or numbered codes have the meaning given here. Ends that are not written are not given here. * marks the point of attachment. Leu(4-F)″ = 4-fluoro-L-leucine, CC(C)(F)C[C@H](N[*:1])C(=O)[*:2]; Piperidin‑4‑ylacetic acid = O=C(CC1CCNCC1)*; Oic = O=C(O)[C@@H]1C[C@@H]2CCCC[C@@H]2N1; Gly(cPent) = N[C@H](C(=O)O)C1CCCC1; NMeI = CC[C@H](C)[C@H](NC)C(=O)O; tBuAla = CC(C)(C)C[C@H](N)C(=O)O; Chg = N[C@H](C(=O)O)C1CCCCC1; NMePro = CN1CCC[C@H]1C(=O)*; NMeC = CN[C@@H](CS)C(=O)O; NMeA = CN[C@@H](C)C(=O)O; Sar = CNCC(=O)O

T1: recombinant rat MASP1 active protease (amino acids 302-704, C-terminal His Tag) (rat, UniProt Q8CHN8 302-704)
T1 sequence: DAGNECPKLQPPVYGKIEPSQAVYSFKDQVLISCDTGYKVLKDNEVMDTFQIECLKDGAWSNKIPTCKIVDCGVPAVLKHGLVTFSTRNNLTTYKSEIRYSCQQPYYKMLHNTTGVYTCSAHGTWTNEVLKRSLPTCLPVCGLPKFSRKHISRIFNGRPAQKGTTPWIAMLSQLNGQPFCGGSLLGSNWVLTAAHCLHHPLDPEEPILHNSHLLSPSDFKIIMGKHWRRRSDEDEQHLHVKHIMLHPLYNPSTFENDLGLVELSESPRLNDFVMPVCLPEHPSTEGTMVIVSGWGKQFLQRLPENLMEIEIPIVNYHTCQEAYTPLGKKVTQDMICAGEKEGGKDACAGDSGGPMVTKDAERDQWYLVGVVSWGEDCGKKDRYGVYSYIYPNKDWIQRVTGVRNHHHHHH


Target: T1, recombinant rat MASP1 active protease …
Experiment: cell-based or functional assay

| Binder | rat MASP1 IC50 [nM] |
| --- | --- |
| A[NMeI]CSRSLPPICIPD-NH2 (disulfide 3-11; N-terminus assumed; SMILES CC[C@H](C)[C@@H]1NC(=O)[C@@H]2CCCN2C(=O)[C@@H]2CCCN2C(=O)[C@H](CC(C)C)NC(=O)[C@H](CO)NC(=O)[C@H](CCCNC(=N)N)NC(=O)[C@H](CO)NC(=O)[C@@H](NC(=O)[C@H]([C@@H](C)CC)N(C)C(=O)[C@H](C)N)CSSC[C@@H](C(=O)N[C@H](C(=O)N2CCC[C@H]2C(=O)N[C@@H](CC(=O)O)C(N)=O)[C@@H](C)CC)NC1=O) [Example 260: A-((N-Me)I)-C+SRSLPPIC+IPD-NH2] | 160 |
| AICSRSLPP[Chg]CIPD-NH2 (disulfide 3-11; N-terminus assumed; SMILES CC[C@H](C)[C@H](NC(=O)[C@H](C)N)C(=O)N[C@H]1CSSC[C@@H](C(=O)N[C@H](C(=O)N2CCC[C@H]2C(=O)N[C@@H](CC(=O)O)C(N)=O)[C@@H](C)CC)NC(=O)[C@H](C2CCCCC2)NC(=O)[C@@H]2CCCN2C(=O)[C@@H]2CCCN2C(=O)[C@H](CC(C)C)NC(=O)[C@H](CO)NC(=O)[C@H](CCCNC(=N)N)NC(=O)[C@H](CO)NC1=O) [Example 254: AIC+SRSLPP-(Chg)-C+IPD-NH2] | 320 |
| [NMePro]ICSRS[tBuAla]PPICIPD-NH2 (disulfide 3-11; SMILES CC[C@H](C)[C@H](NC(=O)[C@@H]1CCCN1C)C(=O)N[C@H]1CSSC[C@@H](C(=O)N[C@H](C(=O)N2CCC[C@H]2C(=O)N[C@@H](CC(=O)O)C(N)=O)[C@@H](C)CC)NC(=O)[C@H]([C@@H](C)CC)NC(=O)[C@@H]2CCCN2C(=O)[C@@H]2CCCN2C(=O)[C@H](CC(C)(C)C)NC(=O)[C@H](CO)NC(=O)[C@H](CCCNC(=N)N)NC(=O)[C@H](CO)NC1=O) [Example 250: ((N-Me)P)-IC+SRS-((tBu)A)-PPIC+IPD-NH2] | 77 |
| AICSRS[tBuAla]P[Oic]I[NMeC]IPD-NH2 (disulfide 3-11; N-terminus assumed; SMILES CC[C@H](C)[C@H](NC(=O)[C@H](C)N)C(=O)N[C@H]1CSSC[C@@H](C(=O)N[C@H](C(=O)N2CCC[C@H]2C(=O)N[C@@H](CC(=O)O)C(N)=O)[C@@H](C)CC)N(C)C(=O)[C@H]([C@@H](C)CC)NC(=O)[C@@H]2C[C@@H]3CCCC[C@@H]3N2C(=O)[C@@H]2CCCN2C(=O)[C@H](CC(C)(C)C)NC(=O)[C@H](CO)NC(=O)[C@H](CCCNC(=N)N)NC(=O)[C@H](CO)NC1=O) [Example 268: AIC+SRS-((tBu)A)-P-(Oic)-I-((N-Me)C)+IPD-NH2] | 100 |
| G[NMeI]CSRSLPPICIPD-NH2 (disulfide 3-11; N-terminus assumed; SMILES CC[C@H](C)[C@@H]1NC(=O)[C@@H]2CCCN2C(=O)[C@@H]2CCCN2C(=O)[C@H](CC(C)C)NC(=O)[C@H](CO)NC(=O)[C@H](CCCNC(=N)N)NC(=O)[C@H](CO)NC(=O)[C@@H](NC(=O)[C@H]([C@@H](C)CC)N(C)C(=O)CN)CSSC[C@@H](C(=O)N[C@H](C(=O)N2CCC[C@H]2C(=O)N[C@@H](CC(=O)O)C(N)=O)[C@@H](C)CC)NC1=O) [Example 261: G-((N-Me)I)-C+SRSLPPIC+IPD-NH2] | 300 |
| AICSRSLPP[Gly(cPent)]CIPD-NH2 (disulfide 3-11; N-terminus assumed; SMILES CC[C@H](C)[C@H](NC(=O)[C@H](C)N)C(=O)N[C@H]1CSSC[C@@H](C(=O)N[C@H](C(=O)N2CCC[C@H]2C(=O)N[C@@H](CC(=O)O)C(N)=O)[C@@H](C)CC)NC(=O)[C@H](C2CCCC2)NC(=O)[C@@H]2CCCN2C(=O)[C@@H]2CCCN2C(=O)[C@H](CC(C)C)NC(=O)[C@H](CO)NC(=O)[C@H](CCCNC(=N)N)NC(=O)[C@H](CO)NC1=O) [Example 262: AIC+SRSLPP-(Cpg)-C+IPD-NH2] | 490 |

The next lines start with the values.

| rat MASP1 IC50 [nM] | Binder |
| --- | --- |
| 260 | AICSRS[Leu(4-F)″]PPICIPD-NH2 (disulfide 3-11; N-terminus assumed; SMILES CC[C@H](C)[C@H](NC(=O)[C@H](C)N)C(=O)N[C@H]1CSSC[C@@H](C(=O)N[C@H](C(=O)N2CCC[C@H]2C(=O)N[C@@H](CC(=O)O)C(N)=O)[C@@H](C)CC)NC(=O)[C@H]([C@@H](C)CC)NC(=O)[C@@H]2CCCN2C(=O)[C@@H]2CCCN2C(=O)[C@H](CC(C)(C)F)NC(=O)[C@H](CO)NC(=O)[C@H](CCCNC(=N)N)NC(=O)[C@H](CO)NC1=O) [Example 248: AIC+SRS-((4-Fluoro)L)-PPIC+IPD-NH2] |
| 130 | [NMeA]ICSRS[tBuAla]PPICIPD-NH2 (disulfide 3-11; N-terminus assumed; SMILES CC[C@H](C)[C@H](NC(=O)[C@H](C)NC)C(=O)N[C@H]1CSSC[C@@H](C(=O)N[C@H](C(=O)N2CCC[C@H]2C(=O)N[C@@H](CC(=O)O)C(N)=O)[C@@H](C)CC)NC(=O)[C@H]([C@@H](C)CC)NC(=O)[C@@H]2CCCN2C(=O)[C@@H]2CCCN2C(=O)[C@H](CC(C)(C)C)NC(=O)[C@H](CO)NC(=O)[C@H](CCCNC(=N)N)NC(=O)[C@H](CO)NC1=O) [Example 253: ((N-Me)A)-IC+SRS-((tBu)A)-PPIC+IPD-NH2] |
| 700 | AICSRSLPP[Chg]CI-NH2 (disulfide 3-11; N-terminus assumed; SMILES CC[C@H](C)[C@H](NC(=O)[C@@H]1CSSC[C@H](NC(=O)[C@@H](NC(=O)[C@H](C)N)[C@@H](C)CC)C(=O)N[C@@H](CO)C(=O)N[C@@H](CCCNC(=N)N)C(=O)N[C@@H](CO)C(=O)N[C@@H](CC(C)C)C(=O)N2CCC[C@H]2C(=O)N2CCC[C@H]2C(=O)N[C@@H](C2CCCCC2)C(=O)N1)C(N)=O) [Example 247: AIC+SRSLPP-(Chg)-C+I-NH2] |
| 27 | {Piperidin‑4‑ylacetic acid}-ICSRS[tBuAla]PPI[NMeC]I-NH2 (disulfide 2-10; SMILES CC[C@H](C)[C@H](NC(=O)[C@@H]1CSSC[C@H](NC(=O)[C@@H](NC(=O)CC2CCNCC2)[C@@H](C)CC)C(=O)N[C@@H](CO)C(=O)N[C@@H](CCCNC(=N)N)C(=O)N[C@@H](CO)C(=O)N[C@@H](CC(C)(C)C)C(=O)N2CCC[C@H]2C(=O)N2CCC[C@H]2C(=O)N[C@@H]([C@@H](C)CC)C(=O)N1C)C(N)=O) [Example 259: (Piperidin-4-ylacetic acid)-IC+SRS-((tBu)A)-PPI-((N-Me)C)+I-NH2] |
| 78 | [Sar]ICSRS[tBuAla]PPICIPD-OH (disulfide 3-11; N-terminus assumed; SMILES CC[C@H](C)[C@H](NC(=O)CNC)C(=O)N[C@H]1CSSC[C@@H](C(=O)N[C@H](C(=O)N2CCC[C@H]2C(=O)N[C@@H](CC(=O)O)C(=O)O)[C@@H](C)CC)NC(=O)[C@H]([C@@H](C)CC)NC(=O)[C@@H]2CCCN2C(=O)[C@@H]2CCCN2C(=O)[C@H](CC(C)(C)C)NC(=O)[C@H](CO)NC(=O)[C@H](CCCNC(=N)N)NC(=O)[C@H](CO)NC1=O) [Example 246: ((N-Me)G)-IC+SRS-((tBu)A)-PPIC+IPD-OH] |
| 140 | [(N,N-diMe)A]ICSRS[tBuAla]PPICIPD-NH2 (disulfide 3-11) [Example 243: ((N,N-diMe)A)-IC+SRS-((tBu)A)-PPIC+IPD-NH2] |
| 130 | AICSRSL[(4aR,6aR,9S,11aS)‑11‑Oxo‑2,3,4,4a,6a,7,8,9,11,11a‑decahydro‑1H‑pyrido(3,2-e)pyrrolo(1,2-a)azepine‑9‑carboxylic acid]ICIPD-NH2 (disulfide 3-10) |
